Source: PMC12990707, “Multiple novel hepatocellular carcinoma signature genes are commonly controlled by the master pluripotency factor OCT4”

B1: TK1 probe 2 (dsDNA)
DNA 1: CCTGGCAGGGTCTACGGATATTATTAGCATAGTCAGGACTTCAATTTTCTTT
DNA 2: AAAGAAAATTGAAGTCCTGACTATGCTAATAATATCCGTAGACCCTGCCAGG
B2: TK1 probe 1 (dsDNA)
DNA 1: GGGACCTGGCACGCACTAGGCGCTCTGCATGCCCACAGGAGTGCTCTAGACG
DNA 2: CGTCTAGAGCACTCCTGTGGGCATGCAGAGCGCCTAGTGCGTGCCAGGTCCC
B3: TK1 probe 3 (dsDNA)
DNA 1: CGGGCTAACACCTTCACACTTTATGCAGAAAGTAACAAGGAACCATTCTGAG
DNA 2: CTCAGAATGGTTCCTTGTTACTTTCTGCATAAAGTGTGAAGGTGTTAGCCCG

Biological target: OCT4 (human, UniProt Q01860 1-360)
Test: EMSA; LightShift chemiluminescent EMSA kit (Thermo 20148) per manufacturer; buffer, salt, pH and temperature not stated
Details: protein: recombinant; label: 5' biotin on both strands; blunt

Chain of OCT4 (Q01860 whole entry): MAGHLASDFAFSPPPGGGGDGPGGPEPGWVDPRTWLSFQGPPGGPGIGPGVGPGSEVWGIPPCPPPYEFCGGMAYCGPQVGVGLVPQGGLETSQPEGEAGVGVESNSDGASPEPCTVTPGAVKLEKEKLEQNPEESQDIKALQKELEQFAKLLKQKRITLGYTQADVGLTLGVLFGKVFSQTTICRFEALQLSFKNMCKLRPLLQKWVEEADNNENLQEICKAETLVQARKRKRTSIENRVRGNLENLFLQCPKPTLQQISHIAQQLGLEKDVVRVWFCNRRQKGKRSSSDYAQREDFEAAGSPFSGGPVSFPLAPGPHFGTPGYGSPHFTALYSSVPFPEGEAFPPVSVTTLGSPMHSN

| Binder | binding result |
| --- | --- |
| B1 | binds |
| B2 | binds |
| B3 | binds |
